Source: patent US20250340649A1 (RUTGERS THE STATE UNIVERSITY OF NEW JERSEY, published 2025)
Substitutions are numbered along the chain they refer to.

B1: C9 (VHH)
VHH: QVQLQESGGGLVQAGGSLRLSCAASGRTVSRYSMGWFRQAPGKEREFVAAIAWFGGWPYYADSVKGRFTISRDNAKNTVYLQMNSLKPEDTAVYYCAARQWARTWDYWGQGTQVTVSS
notes: also called C9 anti-HER2 VHH
B2: F4 anti-HER2 VHH (VHH)
VHH: QVQLQESGGGLVQAGGSLKLSCAASGRTLSAYVVGWFRQAPGKERESVAAIGWSSRSPYYPDSVKGRFTISEDNTKNTVYLQMNSLKPDDTAVYYCAADSYPRRWDRESDFGSWGQGTQVTVSS
B3: D6 anti-HER2 VHH (VHH)
VHH: B2 VHH with K19T, L29F, A31T, S54A, R56N, P61A, E72R, N84K
B4: E9 anti-HER2 VHH (VHH)
VHH: B2 VHH with L11S, K43R, S55T, R56H, P58V, P61A, E72R, K76E, Y101S
B5: H7 anti-HER2 VHH (VHH)
VHH: B2 VHH with K19R, R27H, A31T, G35A, S55T, P61A
B6: F2 anti-HER2 VHH (VHH)
VHH: B2 VHH with K43R, S55T, R56H, P58V, P61A, E72R, K76E, Y101S
B7: E5C1 BiKE (BiKE: HER2/CD16a) (bispecific antibody)
chain: QVQLQESGGGLVQAGGSLRLDCAASGRTLSSYVVGWFRQAPGKEREVVAAIGWSRTSTFYTDSVKGRFTISRDNTENTVYLQMNSLKPGDTAVYYCAADSSPRRWDRESDFGSWGQGTQVTVSSPSGQAGAAASESLFVSNHASQVQLQESGGGLVQAGGSLRLSCAASGRTFRLYRMGWFRQAPGKEREFVGSIKMIDGSTLYGDPVKGRFTISRDNTKFMAYLQMNSLKPEDTAVYYCASVSRVTGSYDSWGQGTQVTVSSWELQGSEQKLISEEDLHHHHHHHHHHHH
notes: Monomer by LC-MS; also called BIKE: CD16a/HER2
B8: A3 (VHH)
VHH: QVQLQESGGGLVQAGGSLRISCAASGRTSDLFPVGWFRQAPGKEREIVAAIRWSGGVIGYGDPVKGRFTISTDNAKNTVYLQMNSLKPEDTAVYYCAAGPRESTVTWNYWGQGTHVTVSS
notes: not the anti-CD16a clone A3; also called A3 anti-HER2 VHH

Experiments:
[1] = target: T1, HER3 (human, UniProt P21860 20-643, limits assumed); assay: ELISA, periplasmic extract on coated antigen, anti-HA-HRP
T1 construct: also called Recombinant Human ErbB 3 protein, Abcam ab196072
Source text: (§1) FIGS. 4A-4B. FIG. 4A) PBMCs were isolated using Ficoll-Paque method. Then, the RNAs were extracted, cDNA library was generated, genes amplified, and then cloned into pMECS-GG phagemids. The phagemids were used in phage display and the screened candidates were used to infect TG1 bacteria. Colonies were selected, grown, lysed, and the lysates removed. FIG. 4B) The lysates were then used in ELISA to screen for VHHs with the highest affinity to HER2 and with negligible binding to HER1, HER3, and HER4. Bovine serum albumin (BSA) and skim milk were used as controls.
(§2) The next day, each well was washed three times with washing buffer (DPBS+0.1% Tween 20) and then incubated with blocking buffer (2% skimmed milk) for 2 h at RT to block the free binding sites. Next, blocking buffer was replaced with 100 μL of periplasmic extract from above and incubated for 1 h at RT while shaking at 700 rpm. Each well was washed six times with washing buffer (DPBS+0.1% Tween 20) followed by addition of 100 μL HRP Anti-HA tag antibody (1:10000 dilution) and incubation for 1 h at RT while shaking at 700 rpm. Each well was washed again six times, followed by addition of 50 μL 1-Step™ Turbo TMB-ELISA substrate solution at incubation at RT for 15 min (without shaking and at dark). The reaction was stopped by adding 50 μL of stop solution ([…] sulfuric acid) and the plate was read at 450 nm using 630 nm as a reference (450/630 nm).

[2] = target: T2, Bovine serum albumin (bovine, UniProt P02769 25-607); assay: as above
T2 construct: Control antigen; also called BSA
Source text: as §1, §2

[3] = target: T3, HER2 protein (coated on ELISA plate) (human, UniProt P04626 23-652, limits assumed); assay: as above
T3 construct: also called HER2 antigen
Source text: as §1, §2

[4] = target: T4, HER1 (human, UniProt P00533 25-645); assay: as above
T4 construct: The text says only 'HER1'; also called Recombinant human EGFR protein (Fc Chimera), Abcam ab155726; Fc part of the bought chimera not given
Source text: as §1, §2

[5] = target: T5, HER2 on the surface of HER2+ cancer cells (BT474, SKOV-3) (human, UniProt P04626 23-1255); assay: flow cytometry on BT-474 cells (HER2+), 100 nM binding sites
T5 construct: whole, on cells; also called human epidermal growth factor receptor 2
Procedure: (§3) OVASC-1 is an ascites-derived epithelial ovarian cancer cells obtained from a patient with advanced metastatic disease (11, 12). The expressed VHHs were then incubated with HER2⁺ (BT474, JIMT-1, and SKOV-3) and HER2⁻ (MDA-MB-231) cancer cell lines. Approximately 10⁶ cells were counted and washed using DPBS-1% FBS. […] After washing, FITC-conjugated anti-Human IgG or anti-Histag antibody were added and incubated on ice for 60 min. Cells were washed three times and then analyzed using Beckman-Coulter Gallios flow cytometer at Rutgers Flow cytometry core facility.
(§4) In the next step, the ability of the VHHs to recognize and bind to HER2 on the surface of HER2+ cancer cells was evaluated. […] MDA-MB-231 and OVASC-1 (HER2⁻) cancer cells were used as negative controls.

[6] = target: T5, HER2 on the surface of HER2+ cancer …; assay: flow cytometry on SKOV-3 cells (HER2+), 100 nM binding sites
Procedure: as §3, §4

[7] = target: T6, Biotinylated Human Fc gamma RIIIB/CD16b (NA2) Protein, His, Avitag (Acrobiosystems CDB-H82Ea) (human, UniProt O75015 17-200, biotinylated (Avitag)); assay: BLI (Octet), biotinylated CD16b-NA2 on streptavidin sensor, BiKE 1.875-60 nM
T6 construct: NA2 allele; also called CD16-NA2
Procedure: (§5) An Octet® Streptavidin (SA) Biosensor was soaked for at least 10 min in DPBS supplemented with 0.1% Casein, biotinylated CD16a, CD16b-NA1, CD16b-NA2, and HER2 antigens were loaded onto the streptavidin (SA) biosensor until 1 nm shift was reached. Next, the sensor was dipped into the washing buffer (DPBS+0.05% Tween 20+0.1% Casein) for 2 min to reach the baseline. […] Then, in the dissociation step, sensors were dipped into the washing buffer for 5 min to acquire data (Table 5). The data were then analyzed using Octet Data Analysis HT 11.1 software. The sensorgrams were subtracted from the reference and fitted into 1:1 binding model for data analysis. Finally, the affinity and kinetics were analyzed using “Association and Dissociation”.

[8] = target: T7, Biotinylated Human Fc gamma RIIIA/CD16a (F176) Protein, Avitag, His Tag (Acrobiosystems CDA-H82E8) (human, UniProt P08637 17-208, biotinylated (Avitag)); assay: BLI (Octet), biotinylated CD16a on streptavidin sensor, BiKE 1.875-60 nM
T7 construct: also called biotinylated CD16a; CD16a antigen
Procedure: as §5

[9] = target: T8, CD16a on NK92 (CD16+) cells (human, UniProt P08637 17-254); assay: flow cytometry, fixed haNK92 (CD16+) cells, tenfold dilutions, anti-histag-FITC
T8 construct: whole, on cells; also called NK92 cells (CD16a+); haNK92 cells (CD16a+)
Procedure: First, CD16a+NK92 was harvested and washed once using Dulbecco's phosphate-buffered saline (DPBS) supplemented with 2% FBS (2% DPBS-FBS). Next, all the cells were fixed using 3.7% paraformaldehyde for 20 min at RT, followed by washing twice. […] Following washing three times, the secondary antibody, anti-Histag antibody FITC labeled, was added. After washing, the samples were run on Cytoflex using FL1 channel.

[10] = target: T9, Biotinylated Human Fc gamma RIIIB/CD16b (NA1) Protein, His, Avitag (Acrobiosystems CDB-H82E4) (human, UniProt O75015 17-200, biotinylated (Avitag)); assay: BLI (Octet), biotinylated CD16b-NA1 on streptavidin sensor, BiKE 1.875-60 nM
T9 construct: NA1 allele; also called CD16b-NAI
Procedure: as §5

[11] = target: T7, Biotinylated Human Fc gamma RIIIA/CD16a …; assay: ELISA, biotinylated CD16a on streptavidin plate, tenfold dilutions 0-1000 nM, anti-cMyc-HRP
Procedure: For ELISA, 50 μL of biotinylated CD16a was added to the streptavidin-coated plate and incubated for 45 min at RT. […] Next, 100 μl anti-cMyc tag HRP conjugated secondary antibody (1:10,000 dilutions) was added. Finally, after washing, the substrate was added for color development, and the plate was read using OD of 450 nm.

[12] = target: T5, HER2 on the surface of HER2+ cancer …; assay: flow cytometry, SKOV-3 (HER2+) cells, tenfold dilutions 0.001-1000 nM
[13] = target: T10, Biotinylated Human Her2/ErbB2 Protein, His, Avitag (AcroBiosystem HE2-H82E2) (human, UniProt P04626 23-652, biotinylated (Avitag)); assay: ELISA on HER2, tenfold dilutions 0-1000 nM; the HER2 form is not stated for this ELISA, Table 17 lists only the biotinylated HER2
T10 construct: Bought protein; Loaded on streptavidin sensors for BLI; also called biotinylated HER2; HER2 antigen

T6 sequence (O75015 17-200 N65S limits assumed): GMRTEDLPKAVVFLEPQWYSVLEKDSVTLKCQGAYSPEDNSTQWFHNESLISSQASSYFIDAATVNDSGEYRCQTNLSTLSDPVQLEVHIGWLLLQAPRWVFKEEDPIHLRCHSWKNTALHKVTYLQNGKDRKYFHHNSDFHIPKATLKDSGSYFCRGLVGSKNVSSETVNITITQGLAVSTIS
T2 sequence (P02769 25-607 limits assumed): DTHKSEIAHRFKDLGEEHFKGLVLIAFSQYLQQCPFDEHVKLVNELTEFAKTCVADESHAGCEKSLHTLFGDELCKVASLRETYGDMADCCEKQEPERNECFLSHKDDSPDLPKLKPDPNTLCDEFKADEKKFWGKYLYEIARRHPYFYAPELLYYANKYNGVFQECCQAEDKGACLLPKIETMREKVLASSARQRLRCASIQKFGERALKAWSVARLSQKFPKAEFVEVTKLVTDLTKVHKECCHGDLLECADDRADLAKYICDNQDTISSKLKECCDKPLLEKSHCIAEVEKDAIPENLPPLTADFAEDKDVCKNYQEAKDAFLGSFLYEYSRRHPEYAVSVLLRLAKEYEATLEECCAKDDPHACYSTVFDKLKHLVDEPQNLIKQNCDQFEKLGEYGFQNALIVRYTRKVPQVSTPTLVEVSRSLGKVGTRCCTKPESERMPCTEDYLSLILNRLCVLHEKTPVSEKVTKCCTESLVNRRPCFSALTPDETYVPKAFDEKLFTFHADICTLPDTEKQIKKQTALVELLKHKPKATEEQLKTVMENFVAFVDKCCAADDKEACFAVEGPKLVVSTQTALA
T9 sequence (O75015 other isoform, or with tags, fused parts or gaps limits assumed): as the sequence (O75015 17-200 N65S limits assumed) above, with S20R, S49N, N66D, I90V counted along it
T7 sequence (P08637 17-208 limits assumed): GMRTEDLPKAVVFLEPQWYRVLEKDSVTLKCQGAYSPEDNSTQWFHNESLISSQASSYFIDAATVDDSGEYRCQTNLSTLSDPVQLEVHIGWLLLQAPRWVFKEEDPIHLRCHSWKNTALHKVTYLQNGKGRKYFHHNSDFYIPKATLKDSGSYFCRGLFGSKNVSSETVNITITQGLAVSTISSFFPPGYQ
T8 sequence (P08637 17-254 F176V): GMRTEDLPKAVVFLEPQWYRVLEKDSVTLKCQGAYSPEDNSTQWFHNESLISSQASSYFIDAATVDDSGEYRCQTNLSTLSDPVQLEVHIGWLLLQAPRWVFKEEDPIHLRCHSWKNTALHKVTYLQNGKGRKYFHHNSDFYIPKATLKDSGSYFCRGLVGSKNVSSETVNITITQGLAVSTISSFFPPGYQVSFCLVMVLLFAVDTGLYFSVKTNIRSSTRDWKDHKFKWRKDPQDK

Row | Binder | binding result [1] | binding result [2] | binding result [4] | FITC+ (%) [5] [%] | FITC- (%) [5] [%] | Mean (MFI) [5] | FITC+ (%) [6] [%] | FITC- (%) [6] [%] | Mean (MFI) [6] | other results
1 | B1 | no binding (tested: extract, conc. not given) | no binding (tested: extract, conc. not given) | no binding (tested: extract, conc. not given) | – | – | – | – | – | – | binding result [3]: binds
2 | B2 | no binding (tested: extract, conc. not given) | no binding (tested: extract, conc. not given) | no binding (tested: extract, conc. not given) | 98.5 | 1.45 | 99500 | 93.3 | 6.51 | 86400 | –
3 | B3 | no binding (tested: extract, conc. not given) | no binding (tested: extract, conc. not given) | no binding (tested: extract, conc. not given) | 98.1 | 1.86 | 96100 | 94.6 | 5.24 | 89400 | –
4 | B4 | no binding (tested: extract, conc. not given) | no binding (tested: extract, conc. not given) | no binding (tested: extract, conc. not given) | 98.2 | 1.85 | 97900 | 93.1 | 6.76 | 88100 | –
5 | B5 | no binding (tested: extract, conc. not given) | no binding (tested: extract, conc. not given) | no binding (tested: extract, conc. not given) | 98.3 | 1.72 | 100000 | 94.8 | 5.02 | 99900 | –
6 | B6 | no binding (tested: extract, conc. not given) | no binding (tested: extract, conc. not given) | no binding (tested: extract, conc. not given) | 98.6 | 1.42 | 99500 | 93.1 | 6.68 | 100000 | –
7 | B7 | – | – | – | – | – | – | – | – | – | Kd [7]: 6.71 nM; koff [7]: 0.000946 s⁻¹; kon [7]: 140000 M⁻¹ s⁻¹; Kd [8]: 2.7 nM; koff [8]: 0.00051 s⁻¹; kon [8]: 189000 M⁻¹ s⁻¹; EC50 (read off the curve) [9]: ~1 nM; Kd [10]: 1730 nM; koff [10]: 0.0743 s⁻¹; kon [10]: 42900 M⁻¹ s⁻¹; EC50 (read off the curve) [11]: ~0.3 nM; EC50 (read off the curve) [12]: ~1 nM; EC50 (read off the curve) [13]: ~0.4 nM
8 | B8 | no binding (tested: extract, conc. not given) | no binding (tested: extract, conc. not given) | no binding (tested: extract, conc. not given) | – | – | – | – | – | – | binding result [3]: binds
